This passage reports stoichiometry N, binding result and Kd results from publication PMC10201424, “Biochemical characterisation of Mer3 helicase interactions and the protection of meiotic recombination intermediates” (Nucleic Acids Research, 2022).

Usually stoichiometry N stands for the number of molecules, sites or subunits per partner or assembly. Broadly, the Kd is a measure of binding affinity in units of concentration. Higher therefore signals lower affinity.

B4: Top3, untagged (chain of the Top3/Rmi1 complex) (enzyme, S. cerevisiae, UniProt P13099 1-656, looked up)
chain: MKVLCVAEKNSIAKAVSQILGGGRSTSRDSGYMYVKNYDFMFSGFPFARNGANCEVTMTSVAGHLTGIDFSHDSHGWGKCAIQELFDAPLNEIMNNNQKKIASNIKREARNADYLMIWTDCDREGEYIGWEIWQEAKRGNRLIQNDQVYRAVFSHLERQHILNAARNPSRLDMKSVHAVGTRIEIDLRAGVTFTRLLTETLRNKLRNQATMTKDGAKHRGGNKNDSQVVSYGTCQFPTLGFVVDRFERIRNFVPEEFWYIQLVVENKDNGGTTTFQWDRGHLFDRLSVLTFYETCIETAGNVAQVVDLKSKPTTKYRPLPLTTVELQKNCARYLRLNAKQSLDAAEKLYQKGFISYPRTETDTFPHAMDLKSLVEKQAQLDQLAAGGRTAWASYAASLLQPENTSNNNKFKFPRSGSHDDKAHPPIHPIVSLGPEANVSPVERRVYEYVARHFLACCSEDAKGQSMTLVLDWAVERFSASGLVVLERNFLDVYPWARWETTKQLPRLEMNALVDIAKAEMKAGTTAPPKPMTESELILLMDTNGIGTDATIAEHIDKIQVRNYVRSEKVGKETYLQPTTLGVSLVHGFEAIGLEDSFAKPFQRREMEQDLKKICEGHASKTDVVKDIVEKYRKYWHKTNACKNTLLQVYDRVKASM
notes: Top3 (type IA topoisomerase), S. cerevisiae, from SK1 strain genomic DNA; untagged; Same chain as in m10 and m11; source: Hi5 insect cells (co-expressed with GST-Rmi1), purified with Rmi1

Values joined by “and” are separate entries in the source; they are usually repeats but may differ in a detail not shown here. Equal entries are not always repeated.

For assay [1], the target named is Mer3-Strep (full-length S. cerevisiae Mer3 with C-terminal 2xStrep-II tag) (S. cerevisiae) (UniProt P51979). The assay can be described thus: SEC-MALS; full-length Mer3, 10 μM at injection, Superose 6 5/150; 30 mM HEPES pH 6.8, 300 mM NaCl, 1 mM MgCl2, 5 μM ZnCl2, 1 mM TCEP. On the technique in general: SEC sorts molecules by how far they enter the pores of the column.

Assay [2] deals with B4. Kind of assay: cross-linking; XL-MS with DSBU, proteins 3 μM, 1 h at 25°C; 30 mM HEPES 6.8, 150 mM NaCl, 5% glycerol, 1 mM MgCl2, 1 mM TCEP; samples: Mer3, Mlh1/Mlh2, Mer3/Mlh1/Mlh2, Top3/Rmi1, Mer3/Top3/Rmi1. Particulars: both partners purified.
Assay [3] concerns the target T1, Mer3-Strep (full-length S. cerevisiae Mer3 with C-terminal 2xStrep-II tag) (S. cerevisiae, UniProt P51979 1-1187, phosphorylated in insect cells; high-confidence sites S17, S80, T100, S398, S958, T1092).
T1 sequence (looked up): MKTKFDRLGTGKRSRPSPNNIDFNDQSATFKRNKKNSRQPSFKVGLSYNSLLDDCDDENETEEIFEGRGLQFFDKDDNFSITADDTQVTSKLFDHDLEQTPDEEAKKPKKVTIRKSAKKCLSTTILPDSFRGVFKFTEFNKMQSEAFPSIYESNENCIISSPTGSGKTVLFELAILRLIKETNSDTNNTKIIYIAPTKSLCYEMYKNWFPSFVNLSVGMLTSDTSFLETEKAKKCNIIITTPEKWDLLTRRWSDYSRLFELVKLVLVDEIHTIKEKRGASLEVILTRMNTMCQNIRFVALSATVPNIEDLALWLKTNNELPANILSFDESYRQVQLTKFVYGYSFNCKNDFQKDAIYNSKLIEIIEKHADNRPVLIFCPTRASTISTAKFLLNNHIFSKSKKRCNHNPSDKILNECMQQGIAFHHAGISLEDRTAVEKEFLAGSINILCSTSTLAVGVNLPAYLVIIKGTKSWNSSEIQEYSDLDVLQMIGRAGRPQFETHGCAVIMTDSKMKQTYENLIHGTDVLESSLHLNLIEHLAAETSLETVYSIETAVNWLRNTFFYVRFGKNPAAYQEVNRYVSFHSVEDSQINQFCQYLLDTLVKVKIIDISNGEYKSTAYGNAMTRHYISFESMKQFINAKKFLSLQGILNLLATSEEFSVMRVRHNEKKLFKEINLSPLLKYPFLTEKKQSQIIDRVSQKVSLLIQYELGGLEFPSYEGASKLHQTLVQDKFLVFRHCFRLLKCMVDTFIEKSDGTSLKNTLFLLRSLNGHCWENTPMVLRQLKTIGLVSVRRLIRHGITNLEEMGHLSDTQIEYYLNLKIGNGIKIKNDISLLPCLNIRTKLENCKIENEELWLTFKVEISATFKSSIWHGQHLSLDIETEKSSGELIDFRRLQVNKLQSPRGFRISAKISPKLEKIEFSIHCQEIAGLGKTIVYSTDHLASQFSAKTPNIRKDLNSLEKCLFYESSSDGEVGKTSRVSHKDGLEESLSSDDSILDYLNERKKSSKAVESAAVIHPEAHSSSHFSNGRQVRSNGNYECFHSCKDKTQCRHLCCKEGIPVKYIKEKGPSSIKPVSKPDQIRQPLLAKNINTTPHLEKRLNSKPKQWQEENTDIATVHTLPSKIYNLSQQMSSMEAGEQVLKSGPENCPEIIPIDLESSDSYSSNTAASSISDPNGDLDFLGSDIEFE
The assay can be described thus: MST; 45 nM RED-NHS labelled Mer3, partner titrated; 50 mM Tris–HCl pH 7.4, 150 mM NaCl, 10 mM MgCl2, 0.05% Tween-20; 25°C; triplicates. The conditions noted are these: both partners purified.

For assay [4], the target named is T1, Mer3-Strep (full-length S. cerevisiae …). Kind of assay: cross-linking; XL-MS with DSBU, proteins 3 μM, 1 h at 25°C; 30 mM HEPES 6.8, 150 mM NaCl, 5% glycerol, 1 mM MgCl2, 1 mM TCEP; samples: Mer3, Mlh1/Mlh2, Mer3/Mlh1/Mlh2, Top3/Rmi1, Mer3/Top3/Rmi1. The conditions noted are these: both partners purified.
Assay [5] shares this target. Kind of assay: pull-down; Mer3-Strep (0.7 μM) held by anti-Strep antibody and protein G beads (the legend says StrepTactin pulldown), His-Top3 1.3 μM; 25 mM HEPES pH 7.5, 5% glycerol, 50 mM NaCl, 1 mM TCEP, 0.1% Tween-20; western blot. The conditions noted are these: both partners purified. In general terms: A western blot detects proteins with antibodies after separation by electrophoresis.

Consider “Mer3-Strep (full-length S. cerevisiae Mer3 with C-terminal 2xStrep-II tag) (from UniProt P51979 1-1187) (enzyme)”, for which the stoichiometry N in assay [1] was determined as 2.

B1: Rmi1 (as used in MST and XL-MS) (natural protein, S. cerevisiae, UniProt Q02685 1-241, looked up)
chain: MSFSSILSQDITDDITPPAYSATLGSREQIVFRAYQNEPWLAGTASNLILDKKLVIVDRELLFQVLMVENITKSKLTQIDDIKTKLDPKKQKVDRLRSGAQGNGAKKYEVITQVDMEDDGNVADNNCAKENNSNNNSSAAKNKAVFKLTLQSKSGDVFFAINSTPISWSSCMLGSKIVILPGTVFNRGVFILKDSQVIFLGGINRVWNENRDQKFCDYLESKLQRDKQLVNGGSKKRKAND
notes: Rmi1, S. cerevisiae, from SK1 strain genomic DNA; The methods describe GST-Rmi1 and untagged (3C protease cleaved) Rmi1; also called Rmi1 alone; source: Hi5 insect cells, purified
On to B1, for which the binding result in assay [2] is “binds”. Also, the Kd in assay [3] was 1990 nM and 1980 nM.

B2: MBP-Mlh2 (chain of the MBP-Mlh1/MBP-Mlh2 complex) (natural protein, S. cerevisiae, UniProt Q07980 1-695, looked up)
chain: MTIHQLSPESQWKIVSSSFIYGPVAAVRELLDNSIDSGAKKVFIDVDSTTGGCEYISVKDDGSGVDIIDRPSMCLEYTTSKMSSLGDISILTTLGFRGEALFLLSNLCNQKGSMQVETKTADDVIGEKWLVDSKGGITNGKRYKVSCPVGTTVILRKLLGGLRARYLEISSRPRKTFDELIYLINHYSLIHRNIRFYFSLVSLQKNGAIERKQMQETLDPKISRARSLSLLARLKKPVPLNFIVEENFVIDEKINLDLILPRMVPESDVINIKRRFKFLSVNERALSLNLETGKTISKLLSSIYRDFSLLDPMVWFINLNCDTKLLDVNIEPEKNDVMIKSFEVIFKKIENKLKLLLEERIGIETNMLGDKHVQPSINEKTSPALVIPTPDAENEISKGCGAVSGKDKTDIPQKNSDLIVPTFYDEANLENTTIVAATPSPTKFSEDKALDEQTQLTISSYRSSSSGSMASEDSTNWRHNFQQELSENSEVAGAGSSTLPSSLTYNYIETIPENEDLELSKDASISNPFMITKIRNVNKKLSENLLEAKRTSCGDANKRGMPNERQLSNTEKKELIKLQQTYGKRNNTVDMTIPRNSKKKVTDNYIKKASCMHKTRPKLMHFSEYTNNYVYTLKNEKIVKHDSDNFAKETLWLRSRDDATSPSSSLLQALRAHVKKPGHIEATTNEWCLFTPDSP
notes: Mlh2, S. cerevisiae, from SK1 strain genomic DNA; Same chain as in m6; source: Hi5 insect cells (co-expressed with MBP-Mlh1), purified (MBP-trap, heparin, SEC); not shown: His6, N-terminal, kept; MBP, N-terminal, kept
Turning to B2, the binding result in assay [4] is given as “binds”.

B3: His-Top3 (enzyme, S. cerevisiae, UniProt P13099 1-656, looked up)
chain: MKVLCVAEKNSIAKAVSQILGGGRSTSRDSGYMYVKNYDFMFSGFPFARNGANCEVTMTSVAGHLTGIDFSHDSHGWGKCAIQELFDAPLNEIMNNNQKKIASNIKREARNADYLMIWTDCDREGEYIGWEIWQEAKRGNRLIQNDQVYRAVFSHLERQHILNAARNPSRLDMKSVHAVGTRIEIDLRAGVTFTRLLTETLRNKLRNQATMTKDGAKHRGGNKNDSQVVSYGTCQFPTLGFVVDRFERIRNFVPEEFWYIQLVVENKDNGGTTTFQWDRGHLFDRLSVLTFYETCIETAGNVAQVVDLKSKPTTKYRPLPLTTVELQKNCARYLRLNAKQSLDAAEKLYQKGFISYPRTETDTFPHAMDLKSLVEKQAQLDQLAAGGRTAWASYAASLLQPENTSNNNKFKFPRSGSHDDKAHPPIHPIVSLGPEANVSPVERRVYEYVARHFLACCSEDAKGQSMTLVLDWAVERFSASGLVVLERNFLDVYPWARWETTKQLPRLEMNALVDIAKAEMKAGTTAPPKPMTESELILLMDTNGIGTDATIAEHIDKIQVRNYVRSEKVGKETYLQPTTLGVSLVHGFEAIGLEDSFAKPFQRREMEQDLKKICEGHASKTDVVKDIVEKYRKYWHKTNACKNTLLQVYDRVKASM
notes: Top3 (type IA topoisomerase), S. cerevisiae, from SK1 strain genomic DNA; also called His-tagged Top3; source: Hi5 insect cells, purified (TALON, heparin, ResourceS, SEC); not shown: His6, N-terminal, kept
Turning to B3, the binding result in assay [5] is “binds”.
For the molecule B4, in assay [4], the binding result is reported as “binds”.

B5: Top3/Rmi1 complex (as used in MST and XL-MS) (complex, S. cerevisiae)
chain 1: MKVLCVAEKNSIAKAVSQILGGGRSTSRDSGYMYVKNYDFMFSGFPFARNGANCEVTMTSVAGHLTGIDFSHDSHGWGKCAIQELFDAPLNEIMNNNQKKIASNIKREARNADYLMIWTDCDREGEYIGWEIWQEAKRGNRLIQNDQVYRAVFSHLERQHILNAARNPSRLDMKSVHAVGTRIEIDLRAGVTFTRLLTETLRNKLRNQATMTKDGAKHRGGNKNDSQVVSYGTCQFPTLGFVVDRFERIRNFVPEEFWYIQLVVENKDNGGTTTFQWDRGHLFDRLSVLTFYETCIETAGNVAQVVDLKSKPTTKYRPLPLTTVELQKNCARYLRLNAKQSLDAAEKLYQKGFISYPRTETDTFPHAMDLKSLVEKQAQLDQLAAGGRTAWASYAASLLQPENTSNNNKFKFPRSGSHDDKAHPPIHPIVSLGPEANVSPVERRVYEYVARHFLACCSEDAKGQSMTLVLDWAVERFSASGLVVLERNFLDVYPWARWETTKQLPRLEMNALVDIAKAEMKAGTTAPPKPMTESELILLMDTNGIGTDATIAEHIDKIQVRNYVRSEKVGKETYLQPTTLGVSLVHGFEAIGLEDSFAKPFQRREMEQDLKKICEGHASKTDVVKDIVEKYRKYWHKTNACKNTLLQVYDRVKASM
chain 2: MSFSSILSQDITDDITPPAYSATLGSREQIVFRAYQNEPWLAGTASNLILDKKLVIVDRELLFQVLMVENITKSKLTQIDDIKTKLDPKKQKVDRLRSGAQGNGAKKYEVITQVDMEDDGNVADNNCAKENNSNNNSSAAKNKAVFKLTLQSKSGDVFFAINSTPISWSSCMLGSKIVILPGTVFNRGVFILKDSQVIFLGGINRVWNENRDQKFCDYLESKLQRDKQLVNGGSKKRKAND
notes: Top3 (type IA topoisomerase), S. cerevisiae, from SK1 strain genomic DNA; untagged; Rmi1, S. cerevisiae, from SK1 strain genomic DNA; The methods describe a GST-tagged and an untagged (3C protease cleaved) preparation; source: Hi5 insect cells (co-expressed from pBIG1a), purified
Molecule B5 had a Kd in assay [3] of 844 ± 148 nM.
